# Measurements taken from patent publication US12043671B2, “Antibodies targeting an amphiregulin-derived cell surface neo-epitope” (Gundersen Lutheran Medical Foundation, Inc., priority 2021, dated 2024).
# B1: 1A3: Rabbit monoclonal IgG specific to cleaved AREG; VH SEQ ID NO: 3, VL SEQ ID NO: 4 (antibody, V domains shown)
# VH: QSVKESEGRLVTPGTPLRLTCTVAGYSLSRYHMCWVRQAPGKGLEWIGMIGGSGRTDYASWAKGRFTISKTSTTVDLKITSPTTEDTATYFCSTVYTDSDGDFWGPGTLVTVSS
# VL: AELDMTQTPSSKSVPVGGTVTINCQASESVYSNDRLAWFQQKPGQPPKLLIYYASTLASGVPSRFKGSGSGTQFTLTISDLECADAATYYCQSCYDMSSYGVAFGGGTELEIL
# modifications: 1A3 antibody, Heavy chain; 1A3 antibody, Light chain
# Assays:
# [1] = target: T1, cleaved-AREG peptide (Homo sapiens, UniProt P15514); assay: ELISA binding of 1A3 and 1A3-VC-PAB-MMAE to cleaved-AREG peptide; conditions: 0.001-1 μg/mL
# T1 construct: host or cells: synthetic peptide
# Experimental: Maxisorp flat bottom 96-well plates (Thermo Fisher Scientific) were coated with 5 μg/mL cleaved-AREG peptide at 4° C. overnight. After washing thrice with PBST (PBS with 0.05% Tween20) and blocking for 2 h at RT with 5% non-fat dry milk in PBST, various concentrations of 1A3 and 1A3-VC-PAB-MMAE (0.001, 0.01, 0.1, 1 μg/mL) were added to the wells and incubated for 2 h at RT. The wells were washed four times with PBST and were incubated at RT with Goat anti-rabbit IgG (H+L) Cross-adsorbed-HRP conjugate secondary Ab (ThermoFisher G-21234) for 1 h. One-Step™ Turbo™ B-ELISA Substrate Solution (Thermo Fisher Scientific) was added to the wells for color development, incubated for 15 min and the reaction was stopped by adding 2 M H2SO4.
# [2] = test system: MCF7 cells; assay: Internalization and intracellular localization of 1A3-pHrodo, live-cell imaging; assay type: cell-based, human; conditions: time course to 2.5 h
# Experimental: In order to study internalization, 1A3 was conjugated with pHrodo iFL Red dye using pHrodo iFL Red Microscale Protein Labeling Kit (P36014, Thermo Fisher Scientific). MCF7 cells were seeded in 12 mm Nunc Glass Bottom Dish, at a density of 1 ×10^5 cells/dish. After allowing the cells to attach overnight, the cells were incubated for 60 min with […] Hoechst dye for nuclei staining and LysoTracker® Green DND-26 (Thermo Fisher Scientific) for lysosomal labeling. The cells were then incubated with 1A3-pHrodo (2 μg/mL) for 20 min at 37° C. After washing the wells with PBS, the cells were supplemented with 1× live-cell imaging solution (Molecular probes, Thermo Fisher Scientific). Fluorescence images were acquired at 30 min intervals for 2.5 h with the Olympus 1×71 inverted fluorescence microscope (Olympus, Shinjuku, Tokyo, Japan). TAPI-2 (20 μM)—pre-treatment was performed overnight, with DMSO serving as a control.
# [3] = test system: MCF-7 cells; assay: Tubulin staining (microtubule integrity); assay type: cell-based, human; conditions: 48 h treatment
# Experimental: FIGS. 4A-4E. In vitro 1A3-MMAE cytotoxicity in MCF-7 (FIG. 4A) and MCF-7F (FIG. 4B) cells measured by MTT assay after treatment with 1A3-MMAE, 1A3 or MMAE. FIG. 4C: Clonogenic growth of MCF-7 or MCF-7F cells after exposure to 1A3-MMAE and replating. FIG. 4D: The quantification of clonogenic growth assays in FIG. 4C. (FIG. 4E). Tubulin staining of MCF-7 cells after 48 h treatment with MMAE, 1A3, 1A3-MMAE (40× magnification).
# [4] = test system: MCF7 xenografts; assay: Orthotopic MCF7 breast cancer xenograft in NSG mice; assay type: in vivo, mouse
# Excerpt: In Vivo Antitumor Activity Studies: The animal experiments were approved by the Institutional Animal Care and Use Committee of University of Wisconsin La Crosse (La Crosse, Wisconsin, USA). Four-week-old female NOD.Cg-Prkdc^scid II2rg^tm1Wjl/SzJ mice (NSG; The Jackson Laboratory) were acclimated for 1 week before the experiments. For MCF7 breast cancer xenograft model, the mice were implanted subcutaneously with 0.72-mg 17β-estradiol 90-day release tablets (Innovative Research of America) 3 days prior to cell injection. […] Firefly luciferase expressing MCF7 and MCF7-F cells (2×10^6 cells in a 1:1 mixture of serum-free DMEM and Matrigel) were injected orthotopically into the fourth inguinal mammary fat pad of each mouse. Once the tumors were well established, each cell line cohort was divided into three groups (n=5). Mean tumor volume at the start of treatment was 111 mm^3 for the MCF7 cohorts and 119 mm^3 for the MCF7-F cohorts. The mice were treated by intraperitoneal injection every 4 days for a total of six doses with unconjugated or MMAE conjugated anti-cleaved-AREG 1A3 antibody (5 mg/kg), or vehicle control (PBS). Tumor volumes were calculated from caliper data by using the formula: Volume (mm^3)=(Length×Width^2)/2. Mice were imaged weekly with the in vivo FX PRO imaging system (Carestream Molecular Imaging, Woodbridge, CA, USA) after injecting luciferin (150 mg/kg body weight). Tumor volume and body weight were monitored once a week. Statistical Analysis:
# To test in vivo efficacy of 1A3-MMAE, human breast cancer cell lines expressing luciferase were injected orthotopically into NSG mice (one tumor in each inguinal mammary gland). Once the average tumor size reached approximately 100-125 mm^3, mice were randomized to one of three treatment groups: PBS, 1A3 (5 mg/kg) or 1A3-MMAE (5 mg/kg). Mice received intraperitoneal injections every 4 days for six total injections and were monitored for tumor progression or regression. Similar experiments were performed with MCF7 (FIGS. 5A, 5B, and 5C, left panels) and MCF7-F (FIGS. 5A, 5B, and 5C, right panels) xenografts.
# [5] = target: T2, cleaved AREG (Homo sapiens, UniProt P15514); assay: Immunohistochemistry on breast tumor tissue micro-array; conditions: for proportion of tumors exhibiting medium/high intensity staining: 10 μg/mL
# T2 construct: tissue US Biomax Inc; host or cells: breast disease spectrum tissue micro-array (formalin-fixed, paraffin-embedded)
# T2 sequence (P15514 188-252): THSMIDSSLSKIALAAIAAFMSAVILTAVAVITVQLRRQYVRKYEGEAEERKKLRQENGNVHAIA
# Experimental: A breast disease spectrum tissue micro-array was purchased from US Biomax Inc. (Derwood, MD, USA). The slides were deparaffinized in xylene and rehydrated by serial incubations in graded ethanol and then in water in a Histo-Tek® SL Slide Stainer (Sakura Finetek USA, Inc., Torrance, CA, USA). Antigen retrieval was performed in a steamer by boiling slides in a container of citrate buffer (pH 6.0) for 20 min, which was then removed for 15 min of cooling on the benchtop. Slides were washed in 1×Wash buffer (Dako Agilent, Santa Clara, CA, USA) and endogenous peroxidase was quenched by incubating with Dako Dual Endogenous Enzyme Block (S2003) for 10 min. Slides were washed in 1× Wash buffer, blocked (5% rabbit/10% goat serum in PBS), and immunostained with goat anti-AREG antibody (15 μg/mL; AF262, R&D Systems) or rabbit anti-cleaved AREG 1A3 antibody (10 μg/mL) overnight at 4° C. Slides were washed four times in 1× Wash buffer, followed by the incubation for 45 min at room temperature in 1:100 dilution of rabbit anti-goat immunoglobulins/HRP (Dako, P0160 or ready-to-use goat anti-rabbit HRP labeled polymer (Dako, K4003). The slides were washed twice in 1× Wash buffer and the color was developed with 3,3-diaminobenzidine tetrahydrochloride substrate chromogen system (K3468, DAKO, Santa Clara, CA, USA). Sections were washed with water and counterstained with hematoxylin, rinsed with water, dehydrated by serial ethanol washes to 100%, cleared and mounted in Permount (Thermo Fisher Scientific). The staining intensity was assessed semi-quantitatively using a four-point scale (negligible=0, low=1, medium=2, high=3) by two investigators working independently on blinded samples. Discordant scores were resolved by joint review.
molecule,measurement,setting,value
B1,"binding to cleaved AREG peptide, unconjugated vs MMAE-conjugated",[1],no substantial difference in binding
same,trafficking after internalization (colocalization of pHrodo and Lysotracker signals),[2],trafficked to the lysosome after internalization
same,tubulin disruption (microtubule integrity),[3],did not
same,longitudinal luciferase imaging of xenografts,"[4]; MCF7, 5 mg/kg",exhibited tumor growth
same,tumor volume response by caliper measurements,"[4]; MCF7, 5 mg/kg i.p. every 4 days, six doses","continued, sometimes rapid increases in tumor volume"
same,cases with medium/high immunoreactivity,[5]; 138 breast cancer specimens,70%
same,proportion of tumors exhibiting medium/high intensity staining,[5]; ER-negative tumors (n=50),70%
same,proportion of tumors exhibiting medium/high intensity staining,[5]; ER-positive tumors (n=88),69.3%
